Results from article PMC9695261.

Biological target: Kansetin (human) (UniProt Q9BYF1)
Assay: SPR

Substance | Kd [nM]
His-tagged RBD of the SARS-CoV-2 Omicron BA.5 strain (domain or fragment) | 33.1
Spike S1+S2 trimer of the SARS-CoV-2 Omicron BA.5 strain (natural protein) | 1.22
